Results from patent US20230100941A1, “MOLECULES TARGETING MUTANT RAS PROTEIN” (AELIN THERAPEUTICS, priority 2020, published 2023).
Ends that are not written are not given here.

Tests used:
KRAS wild-type = target: T1, KRAS wild-type (Homo sapiens, UniProt P01116); experiment: In vitro translation assay with streptavidin pull-down of biotinylated pept-ins, Western blot for KRAS; assay type: binding; details: 10 μM biotinylated pept-in
T1 construct: made in house; host or cells: cell-free: PURExpress In Vitro Protein Synthesis Kit (New England Biolabs), linear T7 PCR template
Description: (§1) In vitro translation assays were performed using the PURExpress® In Vitro Protein Synthesis Kit (New England Biolabs) according to the manufacturer's instructions. Briefly, linear DNA fragments containing T7 promotor and terminator sequences flanking the KRAS coding sequence were generated using PCR and purified using the MinElute PCR Purification Kit (Qiagen). 250 ng of linear DNA was subsequently used for the in vitro translation reaction, which was performed for 2 hours at 37° C. with shaking (1000 rpm). Indicated biotinylated pept-ins were mixed in the translation reactions from a 5 mM stock solution in 6M Urea to a final concentration of 10 μM. Upon completion of the translation reaction, biotinylated pept-ins were captured from the reaction mix using Streptavidin coated beads (Pierce) during 90 min at room temperature. Beads were next washed with TBS containing 0.1% Tween 20 and bound proteins were finally boiled off in 1×SDS loading dye (Bio-Rad) in TBS buffer. Proteins were resolved using Any kD 15-well Mini-PROTEAN gels (Bio-Rad) during SDS-PAGE and probed for KRAS after Western blotting using a mouse monoclonal KRAS-specific antibody (SC-30, Santa Cruz Biotechnology), which was detected with an HRP-coupled anti-mouse secondary antibody using chemiluminescence on a Bio-Rad Chemidoc MP imaging instrument.
(§2) To mimic this in vitro, we devised an in vitro translation setup producing either wild-type or mutant (G12V, G12C, G12D or G13D) KRAS in the presence of biotinylated RAS-targeting pept-ins. This allowed us to perform a streptavidin pull-down to capture the biotinylated pept-ins from the translation reaction and perform SDS-PAGE and Western blotting to probe the pulled-down fraction for the presence of KRAS. The biotinylated version of pept-in 04-004-N001, i.e. 04-004-N011, which harbours an APR window sequence derived from a wild-type APR, is predicted to target all RAS proteins independently from their mutation status.

G12V mutant KRAS = target: T2, G12V mutant KRAS (Homo sapiens, UniProt P01116, G12V); experiment: as above; assay type: binding; details: 10 μM biotinylated pept-in
T2 construct: made in house; host or cells: cell-free: PURExpress In Vitro Protein Synthesis Kit (New England Biolabs), linear T7 PCR template
Description: as §1, §2

G13D mutant KRAS = target: T3, G13D mutant KRAS (Homo sapiens, UniProt P01116, G13D); experiment: as above; assay type: binding; details: 10 μM biotinylated pept-in
T3 construct: made in house; host or cells: cell-free: PURExpress In Vitro Protein Synthesis Kit (New England Biolabs), linear T7 PCR template
Description: as §1, §2

G12D mutant KRAS = target: T4, G12D mutant KRAS (Homo sapiens, UniProt P01116, G12D); experiment: as above; assay type: binding; details: 10 μM biotinylated pept-in
T4 construct: made in house; host or cells: cell-free: PURExpress In Vitro Protein Synthesis Kit (New England Biolabs), linear T7 PCR template
Description: as §1, §2

G12C mutant KRAS = target: T5, G12C mutant KRAS (Homo sapiens, UniProt P01116, G12C); experiment: as above; assay type: binding; details: 10 μM biotinylated pept-in
T5 construct: made in house; host or cells: cell-free: PURExpress In Vitro Protein Synthesis Kit (New England Biolabs), linear T7 PCR template
Description: as §1, §2

[1] = target: T6, mutant G12V KRAS in RASless MEFs (Homo sapiens, UniProt P01116, G12V); experiment: Cellular co-immunoprecipitation assay in RASless MEFs; assay type: cell-based, mouse; details: 25 μM biotinylated pept-in, 16 hours
T6 construct: host or cells: RASless mouse embryonic fibroblasts (HRAS/NRAS-null, endogenous KRAS removed)
Description: (§3) Cellular co-immunoprecipitation assays were performed using either KRAS wild-type or mutant G12V expressing RASless MEFs (see elsewhere) or human NCI-H441 lung adenocarcinoma tumor cells and N-terminally biotinylated pept-ins. Cells were seeded at a density of 300,000 cells in a clear 6-well plate (Cellstar, Greiner). One day after seeding, cells were treated with indicated pept-ins at a final concentration of 25 μM and incubated for […]. Next, cells were lysed with NP-40 lysis buffer (150 mM NaCl, 50 mM Tris HC1 pH8, 1% IGEPAL(NP40), 1xHalt phosphatase/protease inhibitors (Thermo), 1U/μl Universal Nuclease (Pierce)) and biotinylated pept-ins were captured with streptavidin-coated magnetic beads (Pierce) during 1 hours at room temperature. Beads were washed with NP40 lysis buffer at least 3 times, after which bound proteins were boiled off in 1× SDS loading dye (Bio-Rad) in NP40 lysis buffer. Proteins were resolved using Any kD 15-well Mini-PROTEAN gels (Bio-Rad) during SDS-PAGE and probed for KRAS after Western blotting using a rabbit polyclonal KRAS-specific antibody (12063-1-AP, Proteintech).
(§4) To this end, relevant MEF cells were treated with 25 μM biotinylated pept-ins overnight (16 hours). Next, cells were lysed, and pept-ins were immunoprecipitated from the lysates using streptavidin-coated beads. […]

[2] = target: T7, wild-type KRAS in RASless MEFs (Homo sapiens, UniProt P01116); experiment: as above; assay type: cell-based, mouse; details: 25 μM biotinylated pept-in, 16 hours
T7 construct: host or cells: RASless mouse embryonic fibroblasts (HRAS/NRAS-null, endogenous KRAS removed)
Description: as §3, §4

[3] = test system: HeLa cell line overexpressing mCherry-tagged KRAS G12V; experiment: Cellular fluorescent imaging of FITC-labelled pept-ins; assay type: cell-based, human; details: 75 min after treatment
Description: Fluorescent cellular imaging was performed using HeLa cells that were transduced with lentiviral particles carrying a construct expressing KRAS G12V labeled N-terminally with mCherry. Cells were seeded in a black μclear® Cellstar® F-bottom 96-well plates (Greiner) in 100 μL full growth medium. […] Next, cells were fixed, washed and counterstained with the nuclear dye NucBlue™ (containing Hoechst 33342). Images were captured on a Leica confocal microscope.
To complement the co-immunoprecipitation approach, we also used a cellular imaging approach to show target engagement. To this end, we generated a HeLa cell line overexpressing mCherry-tagged KRAS G12V and FITC-labelled versions of the RAS-targeting pept-ins.

pull-down of KRAS wild-type (KRAS wild-type) | pull-down of G12V mutant KRAS (G12V mutant KRAS) | pull-down of G13D mutant KRAS (G13D mutant KRAS) | pull-down of G12D mutant KRAS (G12D mutant KRAS) | pull-down of G12C mutant KRAS (G12C mutant KRAS) | Substance | co-precipitation of mutant G12V KRAS [1] | co-precipitation of wild-type KRAS [2] | association with mCherry-labelled KRAS (inclusion-like perinuclear structures) [3]
efficient pull-down | efficient pull-down | less efficient | less efficient | efficient pull-down | 04-004-N011: biotinylated version of pept-in 04-004-N001 (KLSVFAIKGSKLSVFAIK; also: biotinylated, site not given here) | appeared to precipitate both wild-type and mutant G12V KRAS well | appeared to precipitate both wild-type and mutant G12V KRAS well | 
 |  |  |  |  | 04-015-N032: FITC-labelled version of pept-in 04-015-N001 (KVVVGAVGKGSKVVVGAVGK; also: FITC-labelled, site not given here) |  |  | associates with mCherry-labelled KRAS
